Laboratory results as given in paper PMC9254107, “The Toxoplasma glucan phosphatase TgLaforin utilizes a distinct functional mechanism that can be exploited by therapeutic inhibitors” (The Journal of Biological Chemistry, 2022).

B1: VHR (Vaccinia H1-related phosphatase) (Homo sapiens) (protein)
chain: MSGSFELSVQDLNDLLSDGSGCYSLPSQPCNEVTPRIYVGNASVAQDIPKLQKLGITHVLNAAEGRSFMHVNTNANFYKDSGITYLGIKANDTQEFNLSAYFERAADFIDQALAQKNGRVLVHCREGYSRSPTLVIAYLMMRQKMDVKSALSIVRQNREIGPNDGFLAQLCQLNDRLAKEGKLKP
B2: TgLaforin (Toxoplasma gondii ME49) (protein)
chain: MRVRFSVTAFVPPNAQLGVVGSAPFLGEWKLEHCVPLMPYSAPHPQGLEPSLWFRDIDLDPASCPNDTNDVHSTAAVSASCSADRRRCDLSRQSPHCFPSARSASPYMVEVSRGDCPFAVELMSTSQHVLSEFSKHNSPVYSAGEQRFRRSLPSSASFSSCTSSGSAVAATKCVWDAAAYRVATRAPEVQAVLESHPLRHCAFEYKFVLWYPPNGEIAVPYVPTTAGEEVPITYAGDSEVLNEESEGGARRRSWRKWLFPPSPSRCPAPPGPSESIVWEGFGPDSNRKFCFDPFDVVVDVNELGDLECLYICRIAHFRDPRAGGVGEYDLTTRFYNSVKSECRMHYSTIFPRFFVGSCPRQLKHIRHLKEELKVTCVVNLQTEQDLCNNYPDPIASSRSAEAVSQLYDGSGLRYVWLPTADMCDSARKIAVANAAFLLLGLFQSGHSVYMHCNAGVGRSVAAACAFLCFAVGLDLRKVNFLICARRPVAYWDEKAMKYGIGDYQAKFGHCRVVGEEAEERQHA

Substrate: O=[N+]([O-])c1ccc(OP(=O)(O)O)cc1
Test: purified protein, by the assay type

Protein | Km (pH 5.5, 37.0 °C) [mM] | Km (other: pH 5.5, 37 °C) [mM] | Vmax (other: pH 5.5, 37 °C) [nmol PO4/min]
B1 | 2.5 ± 0.1 |  | 
B2 |  | 1.0 ± 0.05 | 1.4 ± 0.02
